Patent US20200262920A1 (AMPHIVENA THERAPEUTICS, published 2020)

Legend:
human CD33 [1] = molecular target: T1, human CD33 (human, UniProt P20138 18-364); assay: cell-based or functional assay
human CD3 [2] = molecular target: T2, human CD3 (human, UniProt P07766 23-207; P09693 23-182; P04234 22-171; P20963 22-164); assay: cell-based or functional assay
human CD33 [3] = molecular target: T1, human CD33; assay: flow cytometry, HL-60 cells
human CD3 [4] = molecular target: T2, human CD3; assay: flow cytometry, human T-cells
human CD33 [5] = molecular target: T1, human CD33; assay: flow cytometry titration, KG-1 cells
Experimental: (§1) Cells were incubated with 100 μL of serial dilutions of CD33/CD3 2×2 T-cell engagers. After washing three times with FACS buffer the cells were incubated with 0.1 mL of 10 μg/mL mouse monoclonal anti-His antibody in the same buffer for 45 min on ice. After a second washing cycle, the cells were incubated with 0.1 mL of 15 μg/mL FITC-conjugated goat anti-mouse IgG antibodies under the same conditions as before. As a control, cells were incubated with the anti-His IgG followed by the FITC-conjugated goat anti-mouse IgG antibodies without anti-CD33 2×2 T-cell engagers. The cells were then washed again and resuspended in 0.2 mL of FACS buffer containing 2 μg/mL propidium iodide (PI) in order to exclude dead cells. The fluorescence of 1×10⁴ living cells was measured using a Beckman-Coulter FC500 MPL flow cytometer using the MXP software (Beckman-Coulter, Krefeld, Germany) or a Millipore Guava EasyCyte flow cytometer using the Incyte software (Merck Millipore, Schwalbach, Germany). Mean fluorescence intensities of the cell samples were calculated using CXP software (Beckman-Coulter, Krefeld, Germany) or Incyte software (Merck Millipore, Schwalbach, Germany). After subtracting the fluorescence intensity values of the cells stained with the secondary and tertiary reagents alone the values were used for calculation of the KD values with the equation for one-site binding (hyperbola) of the GraphPad Prism (version 6.00 for Windows, GraphPad Software, La Jolla Calif. USA). […]

human CD33 [6] = molecular target: T1, human CD33; assay: flow cytometry titration, HL-60 cells
Experimental: as §1

human CD33 [7] = molecular target: T1, human CD33; assay: flow cytometry titration, U-937 cells
Experimental: as §1

human CD3 [8] = molecular target: T2, human CD3; assay: flow cytometry titration, T cells (human CD3+)

T2 sequence (P07766 23-207, chain 1 of 4): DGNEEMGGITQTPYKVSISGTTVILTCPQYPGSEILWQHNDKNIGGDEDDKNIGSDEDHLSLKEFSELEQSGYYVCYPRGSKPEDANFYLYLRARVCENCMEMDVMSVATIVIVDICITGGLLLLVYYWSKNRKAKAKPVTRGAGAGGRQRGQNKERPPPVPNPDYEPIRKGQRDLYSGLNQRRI
T2 sequence (P09693 23-182, chain 2 of 4): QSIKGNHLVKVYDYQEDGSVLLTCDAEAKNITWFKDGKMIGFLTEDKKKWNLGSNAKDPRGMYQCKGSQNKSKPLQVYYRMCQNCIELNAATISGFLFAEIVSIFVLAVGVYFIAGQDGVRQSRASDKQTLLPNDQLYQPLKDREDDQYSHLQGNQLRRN
T2 sequence (P04234 22-171, chain 3 of 4): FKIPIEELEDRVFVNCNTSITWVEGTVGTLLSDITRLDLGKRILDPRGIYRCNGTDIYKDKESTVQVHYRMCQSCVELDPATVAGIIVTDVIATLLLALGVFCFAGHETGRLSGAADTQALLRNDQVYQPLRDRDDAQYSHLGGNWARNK
T2 sequence (P20963 22-164, chain 4 of 4): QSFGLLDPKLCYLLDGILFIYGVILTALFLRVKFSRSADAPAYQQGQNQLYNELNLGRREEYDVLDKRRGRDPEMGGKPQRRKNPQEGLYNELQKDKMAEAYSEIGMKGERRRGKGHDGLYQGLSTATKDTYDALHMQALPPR
T1 sequence (P20138 18-364): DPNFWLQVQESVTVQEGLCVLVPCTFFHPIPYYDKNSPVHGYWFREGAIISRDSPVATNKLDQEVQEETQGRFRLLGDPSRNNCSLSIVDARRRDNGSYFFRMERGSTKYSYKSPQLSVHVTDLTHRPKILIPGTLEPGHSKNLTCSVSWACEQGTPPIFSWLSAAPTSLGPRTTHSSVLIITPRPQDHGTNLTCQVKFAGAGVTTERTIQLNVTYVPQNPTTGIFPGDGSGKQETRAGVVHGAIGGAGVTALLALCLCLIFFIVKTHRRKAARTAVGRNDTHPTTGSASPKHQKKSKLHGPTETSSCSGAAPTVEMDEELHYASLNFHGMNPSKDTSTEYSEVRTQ

Row | Binder | CD25 Induction EC50 (human CD3 [2]) [nM] | CD69 Induction EC50 (human CD3 [2]) [nM] | T cell Proliferation in PBMC EC50 (human CD3 [2]) [nM] | Kd (human CD33 [3]) [nM] | Kd (human CD3 [4]) [nM] | Kd (human CD33 [5]) [nM] | Kd (human CD33 [6]) [nM] | Kd (human CD33 [7]) [nM] | Kd (human CD3 [8]) [nM] | EC50 on HL-60 (cytotoxicity) (human CD33 [1]) [nM]
1 | CD33/CD3 2×2 T-cell engager 10 (bispecific antibody, Non-covalent homodimer) DIQMTQSPSSLSASVGDRVTITCRSSTGAVTTSNYANWVQQKPGKAPKGLIGGTNKRAPGVPSRFSGSLIGDKATLTISSLQPEDFATYYCALWYSNLWVFGQGTKVEIKGGSGGSQVQLVQSGAEVKKPGASVKVSCKASGYTFTSYDINWVRQAPGQGLEWMGWMNPNSGNTGFAQKFQGRVTMTRDTSTSTVYMELSSLRSEDTAVYYCARDRANTDYSFGMDVWGQGTLVTVSSGGSGQSVLTQPPSASGTPGQRVTISCSGSRSNIGSNTVNWYQQLPGTAPKLLIYGNNQRPSGVPDRFSGSKSGTSASLAISGLQSEDEADYYCATWDDSLIGWVFGGGTKLTVLGGSGGSEVQLVESGGGLVQPGGSLRLSCAASGFTFSTYAMNWVRQAPGKGLEWVGRIRSKYNNYATYYADSVKDRFTISRDDSKNSLYLQMNSLKTEDTAVYYCARHGNFGNSYVSWFAYWGQGTLVTVSSAAAGSHHHHHH | 0.01 | 0.006 | 0.006 | 0.5 | 1.9 | 1 | 0.5 | 1.7 | 1.9 | 0.007
2 | CD33/CD3 2×2 T-cell engager 01 (bispecific antibody, Non-covalent homodimer; also called 2×2 T-cell engager 1) DIQMTQSPSSLSASVGDRVTITCRSSTGAVTTSNYANWVQQKPGKAPKGLIGGTNKRAPGVPARFSGSGSGTDFTLTISSLQPEDFATYYCALWYSNLWVFGQGTKVEIKGGSGGSQVQLVQSGAEVKKPGASVKVSCKASGYTFTSYDINWVRQAPGQGLEWMGWMNPNSGNTGFAQKFQGRVTMTRDTSTSTVYMELSSLRSEDTAVYYCARDRANTDFSYGMDVWGQGTLVTVSSGGSGQSVLTQPPSASGTPGQRVTISCSGSRSNIGSNTVNWYQQLPGTAPKLLIYGNNQRPSGVPDRFSGSKSGTSASLAISGLQSEDEADYYCATWDDSLIGWVFGGGTKLTVLGGSGGSEVQLVESGGGLVQPGGSLRLSCAASGFTFSTYAMNWVRQAPGKGLEWVGRIRSKYNNYATYYADSVKDRFTISRDDSKNSLYLQMNSLKTEDTAVYYCARHGNFGNSYVSWFAYWGQGTLVTVSSAAAGSHHHHHH | 0.092 | 0.091 | 0.089 | 0.6 | 94.2 | 0.9 | 0.6 | 7.1 | 94.2 | 0.0019
3 | CD33/CD3 2×2 T-cell engager 03 (bispecific antibody, Non-covalent homodimer; also called 2×2 T-cell engager 3) DIQMTQSPSSLSASVGDRVTITCRSSTGAVTTSNYANWVQQKPGKAPKGLIGGTNKRAPGVPARFSGSGSGTDFTLTISSLQPEDFATYYCALWYSNLWVFGQGTKVEIKGGSGGSQVQLVQSGAEVKKPGASVKVSCKASGYTFTSYDINWVRQAPGQGLEWMGWMNPNSGNTGFAQKFQGRVTMTRDTSTSTVYMELSSLRSEDTAVYYCARDRANTDYSFGMDVWGQGTLVTVSSGGSGQSVLTQPPSASGTPGQRVTISCSGSRSNIGSNTVNWYQQLPGTAPKLLIYGNNQRPSGVPDRFSGSKSGTSASLAISGLQSEDEADYYCATWDDSLIGWVFGGGTKLTVLGGSGGSEVQLVESGGGLVQPGGSLRLSCAASGFTFSTYAMNWVRQAPGKGLEWVGRIRSKYNNYATYYADSVKDRFTISRDDSKNSLYLQMNSLKTEDTAVYYCARHGNFGNSYVSWFAYWGQGTLVTVSSAAAGSHHHHHH | 0.117 | 0.087 | 0.063 | 1.1 | 81.9 | 1.8 | 1.1 | 8.9 | 81.9 | 0.0036
4 | CD33/CD3 2×2 T-cell engager 08 (bispecific antibody, Non-covalent homodimer; also called 2×2 T-cell engager 8) QSVLTQPPSASGTPGQRVTISCSGSRSNIGSNTVNWYQQLPGTAPKLLIYGNNQRPSGVPDRFSGSKSGTSASLAISGLQSEDEADYYCATWDDSLIGWVFGGGTKLTVLGGSGGSEVQLVESGGGLVQPGGSLRLSCAASGFTFSTYAMNWVRQAPGKGLEWVGRIRSKYNNYATYYADSVKDRFTISRDDSKNSLYLQMNSLKTEDTAVYYCARHGNFGNSYVSYFAYWGQGTLVTVSSGGSGGSDIQMTQSPSSLSASVGDRVTITCRSSTGAVTTSNYANWVQQKPGKAPKALIGGTNKRAPGVPSRFSGSLIGDKATLTISSLQPEDFATYYCALWYSNLWVFGQGTKVEIKGGSGGSQVQLVQSGAEVKKPGASVKVSCKASGYTFTSYDINWVRQAPGQGLEWMGWMNPNSGNTGFAQKFQGRVTMTRDTSTSTVYMELSSLRSEDTAVYYCARDRANTDFSYGMDVWGQGTLVTVSSAAAGSHHHHHH |  |  |  |  |  | 0.5 | 0.3 | 1.8 | 2.4 | 0.0018

Continued by falling Kd (human CD33 [5]), values first:

Row | CD25 Induction EC50 (human CD3 [2]) [nM] | CD69 Induction EC50 (human CD3 [2]) [nM] | T cell Proliferation in PBMC EC50 (human CD3 [2]) [nM] | Kd (human CD33 [3]) [nM] | Kd (human CD3 [4]) [nM] | Kd (human CD33 [5]) [nM] | Kd (human CD33 [6]) [nM] | Kd (human CD33 [7]) [nM] | Kd (human CD3 [8]) [nM] | Binder | EC50 on HL-60 (cytotoxicity) (human CD33 [1]) [nM]
5 | 0.094 | 0.062 | 0.044 | 0.5 | 79.3 | 0.5 | 0.5 | 1.7 | 79.3 | CD33/CD3 2×2 T-cell engager 04 (bispecific antibody, Non-covalent homodimer; also called 2×2 T-cell engager 4) DIQMTQSPSSLSASVGDRVTITCRSSTGAVTTSNYANWVQQKPGKAPKGLIGGTNKRAPGVPARFSGSGSGTDFTLTISSLQPEDFATYYCALWYSNLWVFGQGTKVEIKGGSGGSQVQLVQSGAEVKKPGASVKVSCKASGYTFTSYDINWVRQAPGQGLEWMGWMNPNSGNTGFAQKFQGRVTMTRDTSTSTVYMELSSLRSEDTAVYYCARDRANTDYSLGMDVWGQGTLVTVSSGGSGQSVLTQPPSASGTPGQRVTISCSGSRSNIGSNTVNWYQQLPGTAPKLLIYGNNQRPSGVPDRFSGSKSGTSASLAISGLQSEDEADYYCATWDDSLIGWVFGGGTKLTVLGGSGGSEVQLVESGGGLVQPGGSLRLSCAASGFTFSTYAMNWVRQAPGKGLEWVGRIRSKYNNYATYYADSVKDRFTISRDDSKNSLYLQMNSLKTEDTAVYYCARHGNFGNSYVSWFAYWGQGTLVTVSSAAAGSHHHHHH | 0.0018
6 | 0.042 | 0.027 | 0.004 | 0.2 | 69.8 | 0.3 | 0.2 | 0.9 | 69.8 | CD33/CD3 2×2 T-cell engager 02 (bispecific antibody, Non-covalent homodimer; also called 2×2 T-cell engager 2) DIQMTQSPSSLSASVGDRVTITCRSSTGAVTTSNYANWVQQKPGKAPKGLIGGTNKRAPGVPARFSGSGSGTDFTLTISSLQPEDFATYYCALWYSNLWVFGQGTKVEIKGGSGGSQVQLVQSGAEVKKPGASVKVSCKASGYTFTSYDINWVRQAPGQGLEWMGWMNPNSGNTGFAQKFQGRVTMTRDTSTSTVYMELSSLRSEDTAVYYCARDRAVTDYYYGMDVWGQGTLVTVSSGGSGQSVLTQPPSASGTPGQRVTISCSGSRSNIGSNTVNWYQQLPGTAPKLLIYGNNQRPSGVPDRFSGSKSGTSASLAISGLQSEDEADYYCATWDDSLIGWVFGGGTKLTVLGGSGGSEVQLVESGGGLVQPGGSLRLSCAASGFTFSTYAMNWVRQAPGKGLEWVGRIRSKYNNYATYYADSVKDRFTISRDDSKNSLYLQMNSLKTEDTAVYYCARHGNFGNSYVSWFAYWGQGTLVTVSSAAAGSHHHHHH | 0.0005
7 | 0.011 | 0.007 | 0.009 | 0.5 | 2.4 | 0.3 | 0.5 | 2.2 | 2.4 | CD33/CD3 2×2 T-cell engager 09 (bispecific antibody, Non-covalent homodimer; also called 2×2 T-cell engager 9) DIQMTQSPSSLSASVGDRVTITCRSSTGAVTTSNYANWVQQKPGKAPKGLIGGTNKRAPGVPSRFSGSLIGDKATLTISSLQPEDFATYYCALWYSNLWVFGQGTKVEIKGGSGGSQVQLVQSGAEVKKPGASVKVSCKASGYTFTSYDINWVRQAPGQGLEWMGWMNPNSGNTGFAQKFQGRVTMTRDTSTSTVYMELSSLRSEDTAVYYCARDRANTDFSYGMDVWGQGTLVTVSSGGSGQSVLTQPPSASGTPGQRVTISCSGSRSNIGSNTVNWYQQLPGTAPKLLIYGNNQRPSGVPDRFSGSKSGTSASLAISGLQSEDEADYYCATWDDSLIGWVFGGGTKLTVLGGSGGSEVQLVESGGGLVQPGGSLRLSCAASGFTFSTYAMNWVRQAPGKGLEWVGRIRSKYNNYATYYADSVKDRFTISRDDSKNSLYLQMNSLKTEDTAVYYCARHGNFGNSYVSWFAYWGQGTLVTVSSAAAGSHHHHHH | 0.0068
